{
  "source": "the nanobody polyreactivity screen of Harvey et al. (2022)",
  "data": [
    {"assay": "yeast display, Sf9 membrane polyspecificity reagent, FACS + sequencing; frameworks hold sequencing errors", "summary_of_the_method": "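Galactose-induced (36–48 hours) yeast carrying a synthetic nanobody display library were exposed to 10% biotinylated, detergent-solubilized Sf9 membrane reagent at 4 °C for 1 hour. FACS followed streptavidin microbead enrichment, using low and high (top ~1%) gates for expression (anti-HA) and reagent binding (streptavidin). Colony PCR, MiSeq 2 × 250 sequencing and CDR-length filtering followed. Labels for polyreactivity reflect the gate of origin.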", "values": [
      {"sequence": "QLQLVESGGGLVQAGGSLRLSCAASGLTFQYYAMGWYRQAPGKERELVAAISTSGGSTYYADSVKGRFTISRDNAKNTVYLQMNSLKPEDTAVYYCAARGPGYPRIWRKYGYWGQGTQVTVSS", "polyreactivity (PSR sort gate)": "high polyreactivity"},
      {"sequence": "QLQLVESGGGLVQAGGSLRLSCAASGLTFQYYDMGRYRQAPGKERELVDVIRGSGTSTYYADSVKGRFTISRDNAKNTVYLQMNCLKPEDTAVYYCAAPYQYRRTGRVLGKYDSWGQGTQVTVSS", "polyreactivity (PSR sort gate)": "high polyreactivity"},
      {"sequence": "QLQLVESGGGLVQAGGSLRLSCAASGLTICRYAMAWYRQAPGKEREFVATISQNGGRTYYADSVKGRFTISRDNAKNTVYLQMNSLKPEDTAVYYCAADDWRWGYDYWGQGTQVTVSS", "polyreactivity (PSR sort gate)": "high polyreactivity"},
      {"sequence": "QLQLVESGGGLVQAGGSLRLSCAASGRIFEYYAMGWYRQAPGKERELVAAISWSGGSTYYADSVKGRFTISRDNAKNTVYLQMNSLTPEDTAVYYCARDLPYYSISRYDYWGLGTQVTVSS", "polyreactivity (PSR sort gate)": "high polyreactivity"},
      {"sequence": "QLQLVESGGGLVQAGGSLRLSCAASGRIFQSYALGWYRQAPGKESELVAGIRAGGGRTYYADSVKGRFTISRDNAKNTVYLQMNSLKPEDTAVYYCATDFYPRYLLRTYRPYYYWGQGTQVTVSS", "polyreactivity (PSR sort gate)": "low polyreactivity"},
      {"sequence": "QLQLVESGGGLVQAGGSLRLSCAASGRIFYVNAMGWYRPAPGKERELVAAISRSGSSTYYADSVKGRFTISRDNAKNTVYLQMNSLKPEDTADYYCAARYYGRSQHHFDYWGQGTQVTVSS", "polyreactivity (PSR sort gate)": "high polyreactivity"},
      {"sequence": "QLQLVESGGGLVQAGGSLRLSCAASGRIFYYYTMGWYRQAPGKERELVARITGLTGRTYYADSVKGRFTISRDNAKNTVYLQMNSLKPEDTAVYYCNAVLGYYTYDYWGQGTQVTVSS", "polyreactivity (PSR sort gate)": "high polyreactivity"},
      {"sequence": "QLQLVESGGGLVQAGGSLRLSCAASGRTFQIYAMGWYRQAPVNERELVARITGVGSTNYADSVKGRFTISRDNAKNTVYLQMNSLKPEDTAVYYCNKRDGNWEYDYWGQGTQVTVSS", "polyreactivity (PSR sort gate)": "low polyreactivity"},
      {"sequence": "QLQLVESGGGLVQAGGSLRLSCAASGRTFSIYAMGWSRQATGKERELVAAIRWSGGSTYYADSVKGRFTISRDNAKNSVYLQMNSLKPEDTAVYYCATRSRGLKFDYWGQGTLVTVSS", "polyreactivity (PSR sort gate)": "high polyreactivity"},
      {"sequence": "QLQLVESGGGLVQAGGSLRLSCAASGSIFAIYAMGWYRQAPGKERELVAAISDGGGTNYADSVKGRFTISRDNAKNTVYLQMNSLKPEDTAVYYCAADLGWSTYVSNGPKGYDHWGQGTQVTVSS", "polyreactivity (PSR sort gate)": "low polyreactivity"},
      {"sequence": "QLQLVESGGGLVQAGGSLRLSCAASGSTFHYYDMGWNRKATGKERELVAAISSGGDSTYYADSVKGRFTISRDNAKNTVYLQMNSLKPEDTAVYYCAAAVYYGQSVWYYYWGQGTQVTVSS", "polyreactivity (PSR sort gate)": "high polyreactivity"},
      {"sequence": "QLQLVESGGGLVQAGGSLRLSCAASGYTFYRYAMGWYRQAPGKERELVAAISSAGTTNYADSVKGRFTISRDNAKKTVYFQMNSLKPEDTAVYYCNKRGRNHNSLKYGYWGQGTQVTVSS", "polyreactivity (PSR sort gate)": "high polyreactivity"},
      {"sequence": "QLQLVESGGGLVQAGGSLRLSCAATGYISNAMGWYRQPPGKERELVAAISRSGGSTYYADSVKGRFTISRDNAKNTVYLQMNSLKPEDTAVYYCAADYTYHDRRLDYWGQGTQVTVSS", "polyreactivity (PSR sort gate)": "low polyreactivity"},
      {"sequence": "QLQLVESGGGLVQAGGSLRLSCADSGSTFRYNVMGWYRQAPGNETQLVAAIRDSGDRTYYADSVKGRFTISRDNAKNTVYLQMNSLKPEDTAVYYCNARWQEPLKYDYWGQGTQVTVSS", "polyreactivity (PSR sort gate)": "low polyreactivity"},
      {"sequence": "QLQLVESGGGLVQAGGSLRLSCAPSGRILWVNAMGWYRQAPGKERELVAAISLSGGRTYYADSVKGRFTISRDNAKNTVYLQMNSLKPEDTAVYYCAARTVNYYYTTGDYWGQGTQVTVSS", "polyreactivity (PSR sort gate)": "low polyreactivity"},
      {"sequence": "QLQLVESGGGLVQAGGSLRLSCAPSGRTFVGNAMGWYRQAPGKERELVAAITLSDGSTYYADSVKGRFTISRDNAKNTVYLQMNSLKPEDTAVYYCATQPLYWYDVVVNIRGPSGYWGQGTQVTVSS", "polyreactivity (PSR sort gate)": "low polyreactivity"},
      {"sequence": "QLQLVESGGGLVQAGGSLRLSCAPSGSIFLNYAMGWYRQAPGKERELVATIRRRGGSTYSADSVKGRFTISRDNAKNTVYLQMNSLKPDDTAVYYCNAEQLVSRARPYDYWGQGTLVTVSS", "polyreactivity (PSR sort gate)": "high polyreactivity"},
      {"sequence": "QLQLVESGGGLVQAGGSLRLSFAASSIIPYNAMGWYRQAPVNEREFVAAISVRGVITYYADSVKGRFTISRDNAKNTVYLQMNSLKPEDTAVYDCAADYQPAGVDYWGQGTQVTVSS", "polyreactivity (PSR sort gate)": "low polyreactivity"},
      {"sequence": "QLQLVESGGGLVQAGGSLRLSSAASGSIFIYYAMGWYRQAAGKERELVAAISYSDGDTYYADSVKGRFTISRDNAKNTVYLQMNSLKPEDTAVYYCAAEVPQYYDVGWEDYWGQGTQVTVSS", "polyreactivity (PSR sort gate)": "high polyreactivity"},
      {"sequence": "QLQLVESGGGLVQAGGSLSLSCAASGRTVYGYSMGWYRQAPGKERELVAAISKTGGSTYYADSVKGRFTISRDNAKNTVYLQMNSLKPEDTAVYYCNARDTSGFTRFSSKYDYWGQGTQVTVSS", "polyreactivity (PSR sort gate)": "high polyreactivity"},
      {"sequence": "QLQLVESGGGLVQAGGSLSLSCAASGSIFGYNAMGWYRPAPGKEREFVAAISFRGTSTYYADSVKGRFTISRDNAKNPVYLQMYSLKPEDTAVYYCAARSYDGDHYKHGYWGQGTQVTVSS", "polyreactivity (PSR sort gate)": "high polyreactivity"},
      {"sequence": "QLQLVESGGGLVQEGGSLRISCDASGSTFDDNAMACYRQAPGKERELVAGIDVSGGSTYYADSVKGRFTISRDNAKKTVYLQMTSLTPEDTAVYFCAKGRPGHRTSSVNFNYWGQGTQVTVSS", "polyreactivity (PSR sort gate)": "low polyreactivity"},
      {"sequence": "QLQLVESGRGLVQAGGSLRLSCAASGSIFYSNAKGWYRQATGKERELVATITWSGGRTYYADSVKGRFTISRDNGKNSVYLQMNRLKPEDTAVDYCAVVDRHQPYGRQLDYWGQGTQVTVSS", "polyreactivity (PSR sort gate)": "low polyreactivity"},
      {"sequence": "QLQLVESGRGLVQAGGSLRLSCAASVRTFTCYTMGSYRQAPGKEREFVAAIRKSGGSTYYADSVKGRFTISRDNAKNTVYLQMNSLKPEDTAVYYCAAERLYGYWKYIGYDWGQGTQVTVSS", "polyreactivity (PSR sort gate)": "high polyreactivity"},
      {"sequence": "QLQLVESGRGLVQAGGTLRLSCAASGRIFGKNAIGSYRQAPGKEMELVAAITGSGGRTYNADSVKGRFTISRDNAKNTVYLQMNSMKPEDTAVYYCAVRVTSYYRTMDYWGQGTQGTVSS", "polyreactivity (PSR sort gate)": "low polyreactivity"},
      {"sequence": "QLQLVESGVGLVQAGGSLRLSCAASGSILPVYPMGWYRQAPGKERELVAAISVSGGSTSYADSVKGRFTISRDNAKNTVYLQMNSLKPEDTAVYYCAARYRYSYGYWGQGSQVTVSS", "polyreactivity (PSR sort gate)": "high polyreactivity"},
      {"sequence": "QLQLVETGGGLVQAGGSLRLSCAASGFTLYSYAMGWYRQDPGKEREFVADGSTYYADSVKGRFTISRDNAKNTVYLQINSLKPEDTAVYYCAADPWIYVQSYGYWGQGTQVTVSS", "polyreactivity (PSR sort gate)": "low polyreactivity"},
      {"sequence": "QQQLHESGGGLVQAGGSLRLSCAASGSISQAWYMGWYRQAPGKERELVAAINVGAITYYADIVKGRFSISRDNAKNTVFLPMNSLTPEDTAVYYCAVDQYSEAYYDYWGQGTQATVSS", "polyreactivity (PSR sort gate)": "high polyreactivity"},
      {"sequence": "QRQLVESGGGLVQAGGRLRLSCAASGMTVWDYAMGWYRHATGKERQLVAAISGSGARTYYADSVKWRFTISRDTAKNTVYLQMNSLNPEDTAVYYCAARAVRATAKYEYWGQGTQVTVSS", "polyreactivity (PSR sort gate)": "high polyreactivity"},
      {"sequence": "QVDLVASGGGLVQAGGSLRLSCAASGNIFANYAMGSYRQAPGKERELVAAIRWSASRTYYADSVKARFTISRDNAKNSVYFQLNSLKPEDTAVYYCAATIYTFWDYYYDYWGQGTQVTVSW", "polyreactivity (PSR sort gate)": "high polyreactivity"},
      {"sequence": "QVEHLDSGGGLVQAGGILRLSCASSGIIFGYYAMGWYRQEPGKERELVAGITYRTGSTYYADSVKGRFTISRDNAKNTVYLQMNSLKPEDTEVYFCAATQYTRNYSSWYYYWGQGTQVTVSS", "polyreactivity (PSR sort gate)": "high polyreactivity"},
      {"sequence": "QVEIVESGGGLVQAGGSLRLSCAASGRTFSYYAMGWYRQAPGKERELVAAISTSGGSTYYAVSVKGRFTISRDYAKITVYLQMNSLKPEDTAVYVCAASPYLRFLYGGFGYWGQGTQVTVSS", "polyreactivity (PSR sort gate)": "high polyreactivity"},
      {"sequence": "QVELVASGGGLVQAGGSLRIRCAASGGIFDGNAKGWYRQAPGKEREMVAAISSGGITKYAASVKGRFTISRDNAQYTVYLQMNSLKPEDSAVYYCAASWDRYRFIRNDYWGQGTQVTVSS", "polyreactivity (PSR sort gate)": "high polyreactivity"},
      {"sequence": "QVELVESAAGLVQAGGSLRLSCAASALTFSRYTMGWYSQAPGKDRELVAAISRSGASTYYADSVKGRFTISRDNAKNTVYLQTNSLTPEDTGVYYCAKTSTSYGSLPKVTPYPLDYWGQGTQVTVSS", "polyreactivity (PSR sort gate)": "high polyreactivity"},
      {"sequence": "QVELVESGGGLVQAGGRPRLSCAASGSTFAGYAMGWERQAPGKERELVAAISRRGGSTYYADSVKGRFTISRDNAKNTVYLQMNSLKPEDTAVYFFARDYPLHYDYWGQGTQVTVSS", "polyreactivity (PSR sort gate)": "high polyreactivity"},
      {"sequence": "QVELVESGGGLVQAGGSLRLSCAASGFIFEKYTMGWYRQATGKETELVADITWNGGSTYYADSVKGRFTISRDNAKNTVYLQMNSLKPEDNAVYYCAARVGWNQRRYDYWGQGTQVTVSS", "polyreactivity (PSR sort gate)": "low polyreactivity"},
      {"sequence": "QVELVESGGGLVQAGGSLRLSCAASGFIFYRYTMGWYRQAPGKEREVVAAISRRGGSTYYADSVKGRFTISRDNAKNTVYLQLNSLKPEDTAGYYCAARLGGYPRQGRYDYWGQGTQVTVSS", "polyreactivity (PSR sort gate)": "high polyreactivity"},
      {"sequence": "QVELVESGGGLVQAGGSLRLSCAASGFTFDRYAMGWYRQAPGTERELVAALTRRGTTTYYADSVKGRFTISRDNAKNTVYLQMNSLKPEDTAVYYCAAKRGSVSRPDYGANDESWGQGTQVTVSS", "polyreactivity (PSR sort gate)": "high polyreactivity"},
      {"sequence": "QVELVESGGGLVQAGGSLRLSCDASGITFRSYAMGWYRQAPGKERELVAAIRSGGSTSYADSVKGRFTISRDNAKNTVYLQMNSLKPEDTAVYFCAAGGYVPLTDITFWKFGYWGQGSQVTVSS", "polyreactivity (PSR sort gate)": "low polyreactivity"},
      {"sequence": "QVHHVESGFGLVQAGGSLRLSCASSGTFTVNTMGWYRQAPGKERELVAAISTGDTTTYADSVKGRFTISRDNAKNTVYLQMNSLKPEDTAVYYCNVDIGVYAYESDYWGQGTQVTVSS", "polyreactivity (PSR sort gate)": "low polyreactivity"},
      {"sequence": "QVHHVESGGGLVQAGGSLRLSCAASGIIFGYNVMGWYRQEPGKVRELVAAMRYSGGSTYYADSVKGSFTISRDNAKNTVYLQMNSLKPEDTAVYYCATYSAVRELLWGNGYWGQGTQVTVSS", "polyreactivity (PSR sort gate)": "high polyreactivity"},
      {"sequence": "QVHHVESGGGLVQAGGSLRLSCAASGITFSSYAMGWYRQAPRKERELVAAISYGGGNTYYADSVKGRFTISRDNAKNTVYLQMNSLKPEDTAVYYCNTLYTSYSGLDYWGQGTQVTVSS", "polyreactivity (PSR sort gate)": "high polyreactivity"},
      {"sequence": "QVHHVESGGGLVQAGGSLRLSCAASGLTFYGYTMGRSRQAPGKERELVAAISRGTSTKYADSVKGRFTISRDNAKNTVYLQMNSLKPEETAVYYCAAKGSRSGMGYWGQGTQVTVSS", "polyreactivity (PSR sort gate)": "high polyreactivity"}
    ]}
  ]
}
